Measured values reported in patent publication US20150037348A1 (AbbVie / Abbott, published 2015).
Values joined by “and” are separate entries in the source; they are usually repeats but may differ in a detail not shown here. Equal values may be shown once.

T1: human IL-12 (human, UniProt P29459 23-219; P29460 23-328)
T1 construct: recombinant human IL-12 heterodimer (p35/p40, disulfide-linked); also called hIL-12; rhIL-12
T1 sequence (looked up) 1: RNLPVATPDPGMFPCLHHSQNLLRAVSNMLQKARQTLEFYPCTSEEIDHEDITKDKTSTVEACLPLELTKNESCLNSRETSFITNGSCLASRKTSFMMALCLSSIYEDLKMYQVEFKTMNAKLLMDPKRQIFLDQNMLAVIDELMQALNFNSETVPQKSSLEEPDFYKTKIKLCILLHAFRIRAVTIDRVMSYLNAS
T1 sequence (looked up) 2: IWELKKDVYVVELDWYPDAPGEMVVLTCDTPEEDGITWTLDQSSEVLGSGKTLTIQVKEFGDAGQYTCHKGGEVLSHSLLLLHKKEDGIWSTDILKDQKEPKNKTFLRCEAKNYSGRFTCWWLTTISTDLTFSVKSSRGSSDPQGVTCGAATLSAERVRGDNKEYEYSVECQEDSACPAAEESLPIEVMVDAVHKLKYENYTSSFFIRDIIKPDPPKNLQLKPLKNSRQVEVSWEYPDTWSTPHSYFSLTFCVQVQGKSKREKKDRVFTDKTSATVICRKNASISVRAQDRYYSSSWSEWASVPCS

T2: recombinant human IL-12 (rhIL-12) (human, UniProt P29459 23-219; P29460 23-328)
T2 sequence (looked up) 1: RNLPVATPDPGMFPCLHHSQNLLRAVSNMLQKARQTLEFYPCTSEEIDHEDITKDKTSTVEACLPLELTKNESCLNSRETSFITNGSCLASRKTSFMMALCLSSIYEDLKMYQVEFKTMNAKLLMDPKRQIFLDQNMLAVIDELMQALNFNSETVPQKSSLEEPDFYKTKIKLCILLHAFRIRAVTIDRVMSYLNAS
T2 sequence (looked up) 2: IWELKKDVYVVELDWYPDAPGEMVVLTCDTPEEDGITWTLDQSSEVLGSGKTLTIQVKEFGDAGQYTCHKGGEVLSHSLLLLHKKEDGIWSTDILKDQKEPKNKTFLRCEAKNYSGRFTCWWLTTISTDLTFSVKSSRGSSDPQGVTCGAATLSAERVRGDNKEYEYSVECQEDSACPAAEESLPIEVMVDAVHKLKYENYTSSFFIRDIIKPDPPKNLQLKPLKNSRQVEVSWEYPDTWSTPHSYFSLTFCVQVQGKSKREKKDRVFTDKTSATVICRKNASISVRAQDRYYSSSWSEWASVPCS


Experiments:
[1] = target: T1, human IL-12; test: SPR (BIAcore), IL-12 chip
Description: The system utilizes the optical properties of SPR to detect alterations in protein concentrations within a dextran biosensor matrix. Proteins are covalently bound to the dextran matrix at known concentrations. […] To determine the off rate (koff), on rate (kₒₙ), association rate (Ka) and dissociation rate (Kd) constants, BIAcore kinetic evaluation software (version 2.1) was used.

[2] = target: T1, human IL-12; test: cell-based or functional assay
[3] = target: T1, human IL-12; test: RB assay: 125I-hIL-12 binding to PHA blasts
Procedure: PHA blast cells isolated as described above, were washed once and resuspended in binding buffer to a cell density of 2×10⁷ cells/ml. […] The cell pellet was examined for cell bound radioactivity using a gamma counter. […] Incubations were carried out in duplicate.

[4] = target: T2, recombinant human IL-12 (rhIL-12); test: cell-based or functional assay

Binder | koff [1] [s⁻¹] | PHA assay IC50 [2] | IC50 [3] [nM] | PHA assay IC50 (M) p70:p40 1:0 [4] [M] | PHA assay IC50 (M) p70:p40 1:20 [4] [M] | PHA assay IC50 (M) p70:p40 1:50 [4] [M]
78-34 (scFv, V domains shown, scFv) VH: QVQLVQSGGGVVQPGRSLRLSCAASGFTFSSYGMHWVRQAPGKGLEWVAFIRYDGSNKYYADSVKGRFTISRDNSKNTLYLQMKSLRAEDTAVYYCTTSGSYDYWGQGTMVTVSS VL: SYVLTQPPSVSGTPGQRVTISCSGGRSNIGSNTVKWYQQLPGTAPKLLIYGNDQRPSGVPDRFSGSKSGTSASLAITGVQAEDEADYYCQSYDRGFTGSRVFGTGTKVTVL | 0.0164 | 600 nM | 200 |  |  | 
79-1 (scFv, V domains shown, scFv) VH: QVQLVQSGGGVVQPGRSLRLSCAASGFTFSSYGMHWVRQAPGKGLEWVAFIRYDGSNKYYADSVKGRFTISRDNSKNTLYLQMKSLRAEDTAVYYCTTSGSYDYWGQGTMVTVSS VL: SYVLTQPPSVSGTPGQRVTISCSGGRSNIGSNTVKWYQQLPGTAPKLLIYGNDQRPSGVPDRFSGSKSGTSASLAITGVQAEDEADYYCQSYDSSLWGSRVFGTGTKVTVL |  | 600 nM | 200 |  |  | 
101-11 (scFv, V domains shown, scFv) VH: QVQLVQSGGGVVQPGRSLRLSCAASGFTFSSYGMHWVRQAPGKGLEWVAFIRYDGSNKYYADSVKGRFTISRDNSKNTLYLQMKSLRAEDTAVYYCTTHGSHDNWGQGTMVTVSS VL: SYVLTQPPSVSGTPGQRVTISCSGGRSNIGSNTVKWYQQLPGTAPKLLIYGNDQRPSGVPDRFSGSKSGTSASLAITGVQAEDEADYYCQSYDRGFTGSRVFGTGTKVTVL | 0.0045 | 30 nM and 20 nM | 2 |  |  | 
103-4 (scFv, V domains shown, scFv) VH: QVQLVQSGGGVVQPGRSLRLSCAASGFTFSSYGMHWVRQAPGKGLEWVAFIRYDGSNKYYADSVKGRFTISRDNSKNTLYLQMKSLRAEDTAVYYCTTHGSHDNWGQGTMVTVSS VL: SYVLTQPPSVSGTPGQRVTISCSGGRSNIVSNTVKWYQQLPGTAPKLLIYGNDQRPSGVPDRFSGSKSGTSASLAITGVQAEDEADYYCQSYDRGFTGARVFGTGTKVTVL | 0.00016 | 0.9 nM | 0.086 |  |  | 
103-7 (scFv, V domains shown, scFv) VH: QVQLVQSGGGVVQPGRSLRLSCAASGFTFSSYGMHWVRQAPGKGLEWVAFIRYDGSNKYYADSVKGRFTISRDNSKNTLYLQMKSLRAEDTAVYYCTTHGSHDDWGQGTMVTVSS VL: SYVLTQPPSVSGTPGQRVTISCSGGRSNIGSNTVKWYQQLPGTAPKLLIYGNDQRPSGVPDRFSGSKSGTSASLAITGVQAEDEADYYCQSYDRDFTGTRVFGTGTKVTVL | 0.00037 | 1 nM | 0.14 |  |  | 
103-8 (scFv, V domains shown, scFv) VH: QVQLVQSGGGVVQPGRSLRLSCAASGFTFSSYGMHWVRQAPGKGLEWVAFIRYDGSNKYYADSVKGRFTISRDNSKNTLYLQMKSLRAEDTAVYYCKTHGSHDNWGQGTMVTVSS VL: SYVLTQPPSVSGTPGQRVTISCSGGRSNIGSNTVKWYQQLPGTAPKLLIYGNDQRPSGVPDRFSGSKSGTSASLAITGVQAEDEADYYCQTYDKGFTGSSVFGTGTKVTVL | 0.00033 | 1.5 nM | 0.06 |  |  | 
103-8 & 2 (scFv, V domains shown, scFv) VH: QVQLVQSGGGVVQPGRSLRLSCAASGFTFSSYGMHWVRQAPGKGLEWVAFIRYDGSNKYYADSVKGRFTISRDNSKNTLYLQMKSLRAEDTAVYYCKTHGSHDNWGQGTMVTVSS VL: SYVLTQPPSVSGTPGQRVTISCSGGRSNIGSNTVKWYQQLPGTAPKLLIYGNDQRPSGVPDRFSGSKSGTSASLAITGVQAEDEADYYCQTYDKGFTGSSVFGTGTKVTVL | 0.00053 | 1.5 nM |  |  |  | 
103-14 & 9 (scFv, V domains shown, scFv) VH: QVQLVQSGGGVVQPGRSLRLSCAASGFTFSSYGMHWVRQAPGKGLEWVAFIRYDGSNKYYADSVKGRFTISRDNSKNTLYLQMKSLRAEDTAVYYCKTHGSHDNWGQGTMVTVSS VL: SYVLTQPPSVSGTPGQRVTISCSGGRSNIGSNTVKWYQQLPGTAPKLLIYGNDQRPSGVPDRFSGSKSGTSASLAITGVQAEDEADYYCQSYDRGFTGSMVFGTGTKVTVL | 0.00067 | 1.2 nM | 0.04 |  |  | 
149-4 (scFv, V domains shown, scFv) VH: QVQLVQSGGGVVQPGRSLRLSCAASGFTFSSYGMHWVRQAPGKGLEWVAFIRYDGSNKYYADSVKGRFTISRDNSKNTLYLQMKSLRAEDTAVYYCTTHGSHDNWSQGTMVTVSS VL: SYVLTQPPSVSGTPGQRVTISCSGGRSNIGSNTVKWYQQLPGTAPKLLIYGNDQRPSGVPDRFSGSKSGTSASLAITGVQAEDEADYYCQSYDRGFTGSRVFGTGTKVTVL | 0.00137 | 3 nM | 0.08 |  |  | 
149-7 (scFv, V domains shown, scFv) VH: QVQLVQSGGGVVQPGRSLRLSCAASGFTFSSYGMHWVRQAPGKGLEWVAFIRYDGSNKYYADSVKGRFTISRDNSKNTLYLQMKSLRAEDTAVYYCTTHGSHDNWGQGTMVTVSS VL: SYVLTQPPSVSGTPGQRVTISCSGGRSNIGSNTVKWYQQLPGTAPKLLIYGNDQRPSGVPDRFSGSKSGTSASLAITGVQAEDEADYYCQSYDRDFTGSRVFGTGTKVTVL | 0.00113 | 3 nM | 0.9 |  |  | 
149-11 (scFv, V domains shown, scFv) VH: QVQLVQSGGGVVQPGRSLRLSCAASGFTFSSYGMHWVRQAPGKGLEWVAFIRYDGSNKYYADSVKGRFTISRDNSKNTLYLQMKSLRAEDTAVYYCTTHGSHDNWSQGTMVTVSS VL: SYVLTQPPSVSGTPGQRVTISCSGGRSNIGSNTVKWYQQLPGTAPKLLIYGNDQRPSGVPDRFSGSKSGTSASLAITGVQAEDEADYYCQSYDNGFTGARVFGTGTKVTVL | 0.0143 | 4 nM | 0.2 |  |  | 
Y17 (scFv, V domains shown, scFv) VH: QVQLVQSGGGVVQPGRSLRLSCAASGFTFSSYGMHWVRQAPGKGLEWVAFIRYDGSNKYYADSVKGRFTISRDNSKNTLYLQMKSLRAEDTAVYYCKTHGSHDNWGQGTMVTVSS VL: SYVLTQPPSVSGTPGQRVTISCSGGRSNIGSNTVKWYQQLPGTAPKLLIYGNDQRPSGVPDRFSGSKSGTSASLAITGVQAEDEADYYCQSYDRGSAPMINFGTGTKVTVL | 8.9e-05 | > 10 nM | 0.45 |  |  | 
149-6 (scFv, V domains shown, scFv) VH: QVQLVQSGGGVVQPGRSLRLSCAASGFTFSSYGMHWVRQAPGKGLEWVAFIRYDGSNKYYADSVKGRFTISRDNSKNTLYLQMKSLRAEDTAVYYCTTHGSHDNWGQGTMVTVSS VL: SYVLTQPPSVSGTPGQRVTISCSGGRSNIVSNTVKWYQQLPGTAPKLLIYGNDQRPSGVPDRFSGSKSGTSASLAITGVQAEDEADYYCQSYDRGFTGSRVFGTGTKVTVLG | 0.00273 | 2 nM | 0.6 |  |  | 
136-15 (scFv, V domains shown, scFv) VH: QVQLVQSGGGVVQPGRSLRLSCAASGFTFSSYGMHWVRQAPGKGLEWVAFIRYDGSNKYYADSVKGRFTISRDNSKNTLYLQMKSLRAEDTAVYYCKTHGSHDNWGQGTMVTVSS VL: SYVLTQPPSVSGTPGQRVTISCSGSRSNIGSNTVKWYQQLPGTAPKLLIYGNDQRPSGVPDRFSGSKSGTSASLAITGVQAEDEADYYCQTYDKGFTGSSVFGTGTKVTVLG | 0.00074 | 2 nM | 0.1 |  |  | 
149-5 (scFv, V domains shown, scFv) VH: QVQLVQSGGGVVQPGRSLRLSCAASGFTFSSYGMHWVRQAPGKGLEWVAFIRYDGSNKYYADSVKGRFTISRDNSKNTLYLQMKSLRAEDTAVYYCTTHGSHDTWGQGTMVTVSS VL: SYVLTQPPSVSGTPGQRVTISCSGGRSNIGSNTVKWYQQLPGTAPKLLIYGNDQRPSGVPDRFSGSKSGTSASLAITGVQAEDEADYYCQSYDSSLWGTRVFGTGTKVTVLG | 0.00102 | 3 nM | 0.12 |  |  | 
136-15 germline (scFv, V domains shown) VH: QVQLVESGGGVVQPGRSLRLSCAASGFTFSSYGMHWVRQAPGKGLEWVAFIRYDGSNKYYADSVKGRFTISRDNSKNTLYLQMNSLRAEDTAVYYCKTHGSHDNWGQGTMVTVSS VL: QSVLTQPPSVSGAPGQRVTISCSGSRSNIGSNTVKWYQQLPGTAPKLLIYGNDQRPSGVPDRFSGSKSGTSASLAITGLQAEDEADYYCQTYDKGFTGSSVFGTGTKVTVL | 0.00046 | 6 nM |  |  |  | 
136-15 (scFv) QVQLVQSGGGVVQPGRSLRLSCAASGFTFSSYGMHWVRQAPGKGLEWVAFIRYDGSNKYYADSVKGRFTISRDNSKNTLYLQMKSLRAEDTAVYYCKTHGSHDNWGQGTMVTVSSSYVLTQPPSVSGTPGQRVTISCSGSRSNIGSNTVKWYQQLPGTAPKLLIYGNDQRPSGVPDRFSGSKSGTSASLAITGVQAEDEADYYCQTYDKGFTGSSVFGTGTKVTVLG |  |  |  | 2e-09 | 5e-09 | 4e-09
